Assay results reported in patent publication US6686450B1, “Immunosuppressive agents that inhibit calcineurin function and uses of these agents” (Massachusetts Institute of Technology, priority 1998, dated 2004).

Tests used:
Type in all cases: cell-based
[1] = biological target: T1, interaction between Cabin 1-14 and full length calcineurin β2 (H160N) (Homo sapiens, UniProt P16298, H160N); assay: mammalian two-hybrid assay in Jurkat T cells (luciferase reporter); conditions: Jurkat T cells stimulated with PMA and ionomycin
T1 construct: expressed in transfected cells; host or cells: Jurkat T cells
Description: (§1) A mammalian two-hybrid system was established in Jurkat T cells by fusing calcineurin with the Gal4 DNA binding domain and Cabin 1-14 with the VP16 activation domain (Hsu et al., Proc. Natl. Acid Sci. USA 91:3181-3185 (1994)). The fusion plasmids for mammalian two-hybrid assays were constructed as follows: The cDNAs of calcineurin Aβ2 wild type and H160N mutant were fused to the GAL4 DB in the pM vector (obtained from Clontech, Palo Alto, Calif.) (pMCNβ2 and PMCNβ2 (H160N), and the cDNA of Cabin 1-14 was fused to the VP16 AD in the pVP16 vector (pVPCabin 1-14). Jurkat T cells were transfected with 5 μg of pMCβ2 or pMCβ2 (H160N), 5 μg of pVPCabin 1-14, 1 μg of pCMV-βGal, and 2 μg of pg5Luc, a luciferase reporter plasmid containing GAL4 promoter, by electroporation (960 μF, 250V). After 48 hr, cells were stimulated with 40 nM PMA and 2.5 μM ionomycin, either alone or in combination, for 6 hr before luciferase activity was measured for each sample. The luciferase reporter gene assay reagents were obtained from Promega, Madison, Wis., and the assay was performed per manufacturer's instructions. […] Where appropriate, the transfection efficiency was measured by co-transfecting 2 μg of CMV-driven β-galactosidase expression vector and measuring enzymatic β-galactosidase activity (Ausubel et al., Current Protocols in Molecular Biology (John Wiley & Sons, Inc., New York, 1994)).

[2] = biological target: T2, interaction between Cabin 1-14 and wild type calcineurin β2 (Homo sapiens, UniProt P16298); assay: as above; conditions: Jurkat T cells stimulated with PMA and ionomycin
T2 construct: expressed in transfected cells; host or cells: Jurkat T cells
Description: as §1

[3] = biological target: T3, wild type full-length calcineurin (Homo sapiens, UniProt P16298); assay: co-immunoprecipitation of Cabin 1-14 and calcineurin from Jurkat T cells; conditions: PMA, ionomycin or both for 3 hrs
T3 construct: expressed in transfected cells; host or cells: Jurkat T cells
Description: In the mammalian two-hybrid system, the interaction between full-length calcineurin and Cabin 1-14 required ionomycin, which is consistent with the activation of full-length calcineurin by calcium and calmodulin. Unexpectedly, this interaction also required PMA (see FIG. 3C). Since PMA is known to activate PKC, the effect of a PKC-specific inhibitor, bisindolylmaleimide (Toullec et a., J. Biol. Chem. 266:15771-15781 (1991)), was examined on the PMA/ionomycin-stimulated interaction between Cabin 1-14 and calcineurin. […] In addition to the mammalian two-hybrid system, the interaction of Cabin 1-14 and the wild type full-length calcineurin was also confirmed by co-immunoprecipitation (See FIG. 3E). […] Jurkat T cells transfected with pSG-HACNAβ2 and pSG-Cabin 1-14 were stimulated with PMA, ionomycin or both for 3 hrs. The cells were lysed in a lysis buffer (20 mM TrisHCl, pH 7.4, 0.1M NaCl, 1% Triton X-100, 0.5% NP-40 and 0.5 mM PMSF). Cell lysates thus prepared were incubated with anti-Cabin 1 polyclonal antibodies and protein A/G agarose (Santa Cruz) for 2 hr., washed with lysis buffer and boiled in SDS sample buffer. The samples were subjected to 10% SDS-PAGE, transferred to nitrocellulose which was probed with anti-HA monoclonal antibodies and developed with ECL reagents (Amersham, Arlington Heights, Ill.). […]

[4] = tested on: IL-2 promoter; assay: IL-2 promoter luciferase reporter gene assay in Jurkat T cells; conditions: PMA and ionomycin
[5] = tested on: AP-1 binding sites derived from the IL-2 promoter; assay: AP-1 luciferase reporter gene assay in Jurkat T cells; conditions: coexpression
[6] = tested on: ARRE (Oct1/AP-1) binding sites derived from the IL-2 promoter; assay: ARRE (Oct1/AP-1) luciferase reporter gene assay in Jurkat T cells; conditions: coexpression
[7] = tested on: NF-AT binding sites derived from the IL-2 promoter; assay: NF-AT luciferase reporter gene assay in Jurkat T cells; conditions: coexpression
[8] = tested on: NF-κB binding sites derived from the IL-2 promoter; assay: NF-κB luciferase reporter gene assay in Jurkat T cells; conditions: coexpression
[9] = tested on: calcineurin phosphatase activity; assay: calcineurin-mediated dephosphorylation of ΔNF-AT1 in Jurkat T cells (Western blot)
Description: To determine if the inhibition of IL-2 promoter by Cabin1-14 is mediated through the inhibition of calcineurin phosphatase activity in vivo, the effect of Cabin 1-14 on the calcineurin-mediated dephosphorylation of the N-terminal fragment of NF-ATI (ΔNF-AT1), upon treatment with ionomycin and PMA, was examined. Jurkat T cells were transfected with expression vectors for Cabin 1-14 (pSGCabin 1-14) and for HA-epitope tagged, truncated NF-AT1 (1-460) fused to green fluorescent protein (pSG-ΔNF-AT1 (1-460) by electroporation as described above. After 48 hrs, cells were treated with PMA and ionomycin, either alone or in combination, for another 1 hr. Whole-cell lysates were prepared and subjected to 8% SDS-polyacrylamide gel electrophoresis, transferred to nitrocellulose membrane (Schleicher & Schuell, New Hampshire), probed with anti-HA epitope monoclonal antibody, and developed with ECL reagents (Amersham, Arlington Heights, Ill.).

T3 sequence (P63098 2-170 partner limits assumed, other chains not shown): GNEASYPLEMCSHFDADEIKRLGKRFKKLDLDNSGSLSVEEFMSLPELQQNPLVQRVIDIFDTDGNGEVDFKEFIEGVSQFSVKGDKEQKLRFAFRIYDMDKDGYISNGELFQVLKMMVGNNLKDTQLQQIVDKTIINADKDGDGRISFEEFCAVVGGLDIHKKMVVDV

B1: Cabin 1-14: C-terminal fragment of Cabin 1 polypeptide, SEQ ID NO:5 (protein, listed as Homo sapiens)
chain: KFPPEITVTPPTPTLLSPKGSISEETKQKLKSAILSAQSAANVRKESLCQPALEVLETSSQESSLESETDEDDDYMDI
interaction with full length calcineurin β2 (H160N) mutant [1]: strong interaction
interaction with wild type calcineurin relative to the mutant enzyme [2]: several fold weaker
coprecipitation with wild type calcineurin [3]: coprecipitated only upon stimulation of Jurkat T cells with both PMA and ionomycin
coprecipitation with wild type calcineurin ([3]; listed as Cabin1-14): dependent on both PKC and calcium stimulation
effect on IL-2 reporter gene activation [4]: potently inhibited
effect on IL-2 reporter gene activation ([4]; listed as Cabin1-14): inhibit
effect on AP-1 reporter gene [5]: inhibited
effect on AP-1 reporter gene ([5]; listed as Cabin1-14): inhibits
effect on ARRE (Oct1/AP-1) reporter gene [6]: inhibited
effect on ARRE (Oct1/AP-1) reporter gene ([6]; listed as Cabin1-14): inhibits
effect on NF-AT reporter gene [7]: inhibited
effect on NF-AT reporter gene ([7]; listed as Cabin1-14): inhibits
effect on NF-κB reporter gene [8]: inhibited
effect on NF-κB reporter gene ([8]; listed as Cabin1-14): inhibits
inhibition of ΔNF-AT1 dephosphorylation in the presence of PMA versus in its absence ([9]; ionomycin with PMA versus without): larger extent
effect on dephosphorylation of ΔNF-AT1 ([9]; overexpression, ionomycin in the presence or absence of PMA): inhibited
